Laboratory results as given in patent publication US20050227296A1 (GENERAL HOSPITAL CORPORATION A MASSACHUSETTS, published 2005).

Molecular target: T1, complement iC3b on erythrocytes (EAiC3b) (human, UniProt P01024 23-667; P01024 749-1303; P01024 1321-1663, limits assumed)
T1 construct: iC3b is a multi-chain fragment of C3; also called human iC3b
Experiment: fluoresceinated EAiC3b on immobilized protein
Protocol: For the inhibition studies, E were preincubated with each recombinant protein or pure peptide in the presence of 2% BSA for 5 minutes at RT and added to wells coated with immobilized protein or peptide without washing, unless otherwise indicated. At the end of the binding reactions, wells were washed, examined briefly by light microscopy then solubilized with 1% SDS-0.2 N NaOH. Fluorescence was quantified (excitatory wavelength, 490 nm, emission wavelength, 510 nm) using a SLM 8000 fluorometer (SLM Instruments, Urbana, Ill.). In experiments where the effects of individual divalent cations were measured, Ca²⁺ and Mg²⁺ were replaced with metal-free buffers or with buffers containing each cation at 1. MM, unless otherwise indicated. The effect of temperature was evaluated in the presence of 1 mM MnCl₂ at 37° C. and at 4° C.

T1 sequence (P01024 23-667 limits assumed, chain 1 of 3): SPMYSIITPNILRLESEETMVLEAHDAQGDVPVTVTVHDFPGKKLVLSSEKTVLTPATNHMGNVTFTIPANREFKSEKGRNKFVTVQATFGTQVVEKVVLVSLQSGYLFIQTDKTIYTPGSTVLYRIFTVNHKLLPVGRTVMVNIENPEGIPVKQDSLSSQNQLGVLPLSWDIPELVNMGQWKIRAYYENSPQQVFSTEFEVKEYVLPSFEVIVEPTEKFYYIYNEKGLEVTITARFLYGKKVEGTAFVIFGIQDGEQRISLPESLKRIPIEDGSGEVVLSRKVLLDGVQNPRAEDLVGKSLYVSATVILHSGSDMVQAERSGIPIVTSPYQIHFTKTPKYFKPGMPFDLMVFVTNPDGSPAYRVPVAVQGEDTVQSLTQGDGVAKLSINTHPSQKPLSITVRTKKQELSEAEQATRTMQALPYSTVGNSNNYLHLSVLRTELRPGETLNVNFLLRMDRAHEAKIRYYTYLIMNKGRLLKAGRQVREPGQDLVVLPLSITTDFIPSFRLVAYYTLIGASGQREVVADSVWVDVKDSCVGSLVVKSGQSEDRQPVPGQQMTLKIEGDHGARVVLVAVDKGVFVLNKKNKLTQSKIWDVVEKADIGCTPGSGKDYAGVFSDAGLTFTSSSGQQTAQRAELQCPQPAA
T1 sequence (P01024 749-1303 limits assumed, chain 2 of 3): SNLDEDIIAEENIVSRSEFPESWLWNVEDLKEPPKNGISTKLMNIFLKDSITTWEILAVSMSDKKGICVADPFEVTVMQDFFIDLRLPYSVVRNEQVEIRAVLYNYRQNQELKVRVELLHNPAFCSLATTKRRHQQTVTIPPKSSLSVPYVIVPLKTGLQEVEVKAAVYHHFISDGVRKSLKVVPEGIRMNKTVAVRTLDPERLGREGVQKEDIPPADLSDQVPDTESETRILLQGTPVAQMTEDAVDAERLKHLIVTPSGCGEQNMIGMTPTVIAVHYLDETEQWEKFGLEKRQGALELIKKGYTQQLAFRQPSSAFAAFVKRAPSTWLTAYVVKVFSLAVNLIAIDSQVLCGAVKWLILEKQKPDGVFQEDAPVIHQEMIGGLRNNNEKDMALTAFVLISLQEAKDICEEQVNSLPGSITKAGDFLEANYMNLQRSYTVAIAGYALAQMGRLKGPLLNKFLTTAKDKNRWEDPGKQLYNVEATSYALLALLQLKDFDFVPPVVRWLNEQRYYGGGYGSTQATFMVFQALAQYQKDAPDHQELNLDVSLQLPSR
T1 sequence (P01024 1321-1663 limits assumed, chain 3 of 3): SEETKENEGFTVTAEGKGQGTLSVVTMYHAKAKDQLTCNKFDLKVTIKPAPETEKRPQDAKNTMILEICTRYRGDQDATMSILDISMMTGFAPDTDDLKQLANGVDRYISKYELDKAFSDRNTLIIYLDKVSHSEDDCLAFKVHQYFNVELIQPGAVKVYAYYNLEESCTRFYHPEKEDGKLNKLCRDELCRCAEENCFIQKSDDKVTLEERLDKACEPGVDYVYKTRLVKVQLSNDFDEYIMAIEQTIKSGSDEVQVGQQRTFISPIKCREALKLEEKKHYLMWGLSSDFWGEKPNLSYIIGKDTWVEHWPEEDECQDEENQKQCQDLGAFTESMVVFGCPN

B1: recombinant CD11a A domain (receptor, human, UniProt P20701 153-332, looked up)
chain: GNVDLVFLFDGSMSLQPDEFQKILDFMKDVMKKLSNTSYQFAAVQFSTSYKTEFDFSDYVKRKDPDALLKHVKHMLLLTNTFGAINYVATEVFREELGARPDATKVLIIITDGEATDSGNIDAAKDIIRYIIGIGKHFQTKESQETLHKFASKPASEFVKILDTFEKLKDLFTELQKKIY
notes: domain: A domain; Expressed as a GST fusion in E. coli, used as such or released by thrombin; also called r11aA; rCD11a A-domain
binding result: no binding
